Assay results: PMC9296673, “Conformational landscape of the yeast SAGA complex as revealed by cryo-EM” (Scientific Reports, 2022)
Each block holds one binder with its values, some of them ahead of it.

Molecular target: T1, Tra1 (S. cerevisiae, UniProt P38811 1-3744)
T1 construct: Tra1, S. cerevisiae, largest subunit of SAGA (433 kDa), endogenous subunit of the purified native complex; Subunit of native SAGA purified through a 3xFLAG tag; The complex was mildly cross-linked with glutaraldehyde (GraFix) before cryo-EM; also called Tra1 module; head; source: endogenous, S. cerevisiae, purified as part of native SAGA (anti-FLAG M2 resin, FLAG peptide elution, GraFix)
Experiment: cryo-EM structure; native S. cerevisiae SAGA purified by anti-FLAG and GraFix (glycerol/glutaraldehyde gradient), 40 mM HEPES pH 7.4, 150 mM NaCl, 0.01% Tween-20, vitrified on lacey carbon grids with graphene oxide; consensus map 3.1 Å, Tra1 2.9 Å, core 3.2 Å; published models (PDB 6t9j, 6t9k) fitted into the map
Details: both partners purified

T1 sequence (P38811 whole entry): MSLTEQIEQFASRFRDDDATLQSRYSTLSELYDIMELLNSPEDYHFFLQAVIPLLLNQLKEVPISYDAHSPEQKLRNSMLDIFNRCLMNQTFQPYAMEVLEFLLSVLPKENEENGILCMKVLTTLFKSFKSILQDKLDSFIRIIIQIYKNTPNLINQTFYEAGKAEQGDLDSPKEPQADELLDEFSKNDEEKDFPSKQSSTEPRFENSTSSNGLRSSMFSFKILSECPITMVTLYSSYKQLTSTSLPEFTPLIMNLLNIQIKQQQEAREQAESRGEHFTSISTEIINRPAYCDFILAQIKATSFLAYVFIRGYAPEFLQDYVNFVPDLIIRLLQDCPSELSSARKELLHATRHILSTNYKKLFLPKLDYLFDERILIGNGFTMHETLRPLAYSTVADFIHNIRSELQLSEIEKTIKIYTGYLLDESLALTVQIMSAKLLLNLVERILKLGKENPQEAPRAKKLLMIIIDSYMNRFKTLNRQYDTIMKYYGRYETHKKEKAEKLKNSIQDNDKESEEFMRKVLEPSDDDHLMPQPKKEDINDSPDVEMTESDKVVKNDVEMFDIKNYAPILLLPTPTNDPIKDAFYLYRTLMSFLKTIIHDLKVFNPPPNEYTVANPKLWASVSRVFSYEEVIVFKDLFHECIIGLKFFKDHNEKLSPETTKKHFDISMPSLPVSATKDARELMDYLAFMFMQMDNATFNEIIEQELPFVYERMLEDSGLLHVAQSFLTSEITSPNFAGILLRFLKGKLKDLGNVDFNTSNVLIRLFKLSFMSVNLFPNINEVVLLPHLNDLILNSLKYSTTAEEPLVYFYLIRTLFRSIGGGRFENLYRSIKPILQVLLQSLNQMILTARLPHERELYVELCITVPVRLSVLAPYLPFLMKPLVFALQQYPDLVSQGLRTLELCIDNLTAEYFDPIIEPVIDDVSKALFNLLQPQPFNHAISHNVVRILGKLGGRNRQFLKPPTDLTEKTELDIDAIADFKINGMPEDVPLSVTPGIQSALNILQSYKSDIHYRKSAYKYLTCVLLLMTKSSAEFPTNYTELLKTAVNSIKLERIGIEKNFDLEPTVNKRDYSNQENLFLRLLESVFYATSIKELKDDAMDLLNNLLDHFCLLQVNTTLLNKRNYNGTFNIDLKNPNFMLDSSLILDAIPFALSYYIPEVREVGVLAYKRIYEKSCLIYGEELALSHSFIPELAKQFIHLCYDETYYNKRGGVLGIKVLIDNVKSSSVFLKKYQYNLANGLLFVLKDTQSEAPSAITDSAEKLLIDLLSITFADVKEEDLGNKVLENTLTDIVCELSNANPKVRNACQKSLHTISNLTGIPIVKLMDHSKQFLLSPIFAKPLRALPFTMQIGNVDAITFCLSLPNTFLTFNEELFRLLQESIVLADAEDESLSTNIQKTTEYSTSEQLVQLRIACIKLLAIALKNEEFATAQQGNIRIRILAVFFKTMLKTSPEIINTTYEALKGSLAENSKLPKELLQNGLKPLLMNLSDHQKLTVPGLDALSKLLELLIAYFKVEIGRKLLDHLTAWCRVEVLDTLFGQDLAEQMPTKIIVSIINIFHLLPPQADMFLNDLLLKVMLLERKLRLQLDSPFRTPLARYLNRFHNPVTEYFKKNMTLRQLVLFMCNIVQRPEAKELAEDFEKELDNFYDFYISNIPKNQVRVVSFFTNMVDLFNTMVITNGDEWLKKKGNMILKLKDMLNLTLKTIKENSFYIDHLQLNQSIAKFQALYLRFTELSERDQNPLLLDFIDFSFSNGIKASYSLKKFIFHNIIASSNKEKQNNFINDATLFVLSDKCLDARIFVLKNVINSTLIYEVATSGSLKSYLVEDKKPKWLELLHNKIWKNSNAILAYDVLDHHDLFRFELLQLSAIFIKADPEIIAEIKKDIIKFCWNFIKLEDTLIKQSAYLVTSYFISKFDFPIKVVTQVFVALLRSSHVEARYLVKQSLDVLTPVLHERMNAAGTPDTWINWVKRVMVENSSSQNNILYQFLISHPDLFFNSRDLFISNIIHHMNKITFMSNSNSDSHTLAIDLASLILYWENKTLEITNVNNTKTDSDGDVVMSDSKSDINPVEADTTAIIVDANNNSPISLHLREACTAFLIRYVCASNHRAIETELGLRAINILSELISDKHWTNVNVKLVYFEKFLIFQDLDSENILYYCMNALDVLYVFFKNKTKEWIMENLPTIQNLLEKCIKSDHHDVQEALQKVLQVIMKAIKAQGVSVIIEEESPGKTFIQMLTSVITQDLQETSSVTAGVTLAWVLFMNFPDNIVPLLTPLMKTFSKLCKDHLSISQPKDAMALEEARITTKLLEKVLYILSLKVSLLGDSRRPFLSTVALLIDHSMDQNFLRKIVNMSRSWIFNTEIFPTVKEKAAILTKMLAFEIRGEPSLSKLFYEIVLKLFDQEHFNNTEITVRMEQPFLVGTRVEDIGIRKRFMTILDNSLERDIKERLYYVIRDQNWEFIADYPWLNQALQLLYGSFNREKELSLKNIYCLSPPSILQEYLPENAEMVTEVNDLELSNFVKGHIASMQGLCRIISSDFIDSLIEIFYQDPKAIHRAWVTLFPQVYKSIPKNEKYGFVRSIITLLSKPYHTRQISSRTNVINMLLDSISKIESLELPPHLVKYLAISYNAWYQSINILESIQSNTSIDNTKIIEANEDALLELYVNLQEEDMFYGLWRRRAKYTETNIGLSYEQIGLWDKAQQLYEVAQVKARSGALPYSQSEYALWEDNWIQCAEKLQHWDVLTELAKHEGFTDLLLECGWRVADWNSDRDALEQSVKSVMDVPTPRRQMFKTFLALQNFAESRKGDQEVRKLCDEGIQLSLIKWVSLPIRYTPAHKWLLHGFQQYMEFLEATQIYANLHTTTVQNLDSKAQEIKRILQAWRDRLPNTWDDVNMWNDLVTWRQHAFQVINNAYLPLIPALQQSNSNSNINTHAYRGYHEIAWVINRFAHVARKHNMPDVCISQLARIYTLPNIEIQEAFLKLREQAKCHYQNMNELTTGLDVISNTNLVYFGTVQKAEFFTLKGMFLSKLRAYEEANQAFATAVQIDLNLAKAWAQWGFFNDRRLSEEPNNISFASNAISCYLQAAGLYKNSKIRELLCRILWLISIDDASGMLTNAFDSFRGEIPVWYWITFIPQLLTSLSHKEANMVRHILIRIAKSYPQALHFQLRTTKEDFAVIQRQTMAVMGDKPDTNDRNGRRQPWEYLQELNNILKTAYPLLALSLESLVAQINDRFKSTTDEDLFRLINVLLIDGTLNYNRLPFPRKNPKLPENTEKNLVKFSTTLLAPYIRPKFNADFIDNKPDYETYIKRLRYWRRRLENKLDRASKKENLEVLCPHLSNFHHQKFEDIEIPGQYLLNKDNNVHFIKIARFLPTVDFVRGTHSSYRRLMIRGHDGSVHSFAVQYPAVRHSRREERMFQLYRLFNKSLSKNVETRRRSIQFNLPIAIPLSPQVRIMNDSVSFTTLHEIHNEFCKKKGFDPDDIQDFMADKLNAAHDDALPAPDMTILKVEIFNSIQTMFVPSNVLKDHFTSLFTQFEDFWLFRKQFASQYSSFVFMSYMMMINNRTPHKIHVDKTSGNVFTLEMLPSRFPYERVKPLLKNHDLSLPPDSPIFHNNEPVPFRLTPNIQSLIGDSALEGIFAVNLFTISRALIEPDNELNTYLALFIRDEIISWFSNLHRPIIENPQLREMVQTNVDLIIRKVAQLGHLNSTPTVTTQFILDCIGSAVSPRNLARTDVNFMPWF

binding result: binds
B1: Taf12 (natural protein, S. cerevisiae, UniProt Q03761 1-539, looked up)
chain: MSSNPENSGVNANNNTGTGNADAITGAQQNMVLQPRQLQEMAAKFRTLLTEARNVGETTPRGKELMFQAAKIKQVYDALTLNRRRQQAAQAYNNTSNSNSSNPASIPTENVPNSSQQQQQQQQQTRNNSNKFSNMIKQVLTPEENQEYEKLWQNFQVRHTSIKEKETYLKQNIDRLEQEINKQTDEGPKQQLQEKKIELLNDWKVLKIEYTKLFNNYQNSKKTFYVECARHNPALHKFLQESTQQQRVQQQRVQQQQQQQQQQQQQQQQQQQQQQQRQGQNQRKISSSNSTEIPSVTGPDALKSQQQQQNTITATNNPRGNVNTSQTEQSKAKVTNVNATASMLNNISSSKSAIFKQTEPAIPISENISTKTPAPVAYRSNRPTITGGSAMNASALNTPATTKLPPYEMDTQRVMSKRKLRELVKTVGIDEGDGETVIDGDVEELLLDLADDFVTNVTAFSCRLAKHRKSDNLEARDIQLHLERNWNIRIPGYSADEIRSTRKWNPSQNYNQKLQSITSDKVAAAKNNGNNVASLNTKK
notes: Taf12, S. cerevisiae, subunit of the SAGA core module, endogenous subunit of the purified native complex; Subunit of native SAGA purified through a 3xFLAG tag; The complex was mildly cross-linked with glutaraldehyde (GraFix) before cryo-EM; also called Taf12 core subunit; source: endogenous, S. cerevisiae, purified as part of native SAGA (anti-FLAG M2 resin, FLAG peptide elution, GraFix)

binding result: binds
B2: Spt20 (natural protein, S. cerevisiae, UniProt P50875 1-604, looked up)
chain: MSANSPTGNDPHVFGIPVNATPSNMGSPGSPVNVPPPMNPAVANVNHPVMRTNSNSNANEGTRTLTREQIQQLQQRQRLLLQQRLLEQQRKQQALQNYEAQFYQMLMTLNKRPKRLYNFVEDADSILKKYEQYLHSFEFHIYENNYKICAPANSRLQQQQKQPELTSDGLILTKNNETLKEFLEYVARGRIPDAIMEVLRDCNIQFYEGNLILQVYDHTNTVDVTPKENKPNLNSSSSPSNNNSTQDNSKIQQPSEPNSGVANTGANTANKKASFKRPRVYRTLLKPNDLTTYYDMMSYADNARFSDSIYQQFESEILTLTKRNLSLSVPLNPYEHRDMLEETAFSEPHWDSEKKSFIHEHRAESTREGTKGVVGHIEERDEFPQHSSNYEQLMLIMNERTTTITNSTFAVSLTKNAMEIASSSSNGVRGASSSTSNSASNTRNNSLANGNQVALAAAAAAAAVGSTMGNDNNQFSRLKFIEQWRINKEKRKQQALSANINPTPFNARISMTAPLTPQQQLLQRQQQALEQQQNGGAMKNANKRSGNNATSNNNNNNNNLDKPKVKRPRKNAKKSESGTPAPKKKRMTKKKQSASSTPSSTTMS
notes: Spt20, S. cerevisiae, subunit of the SAGA core module, endogenous subunit of the purified native complex; Subunit of native SAGA purified through a 3xFLAG tag; The complex was mildly cross-linked with glutaraldehyde (GraFix) before cryo-EM; also called Spt20 core subunit; source: endogenous, S. cerevisiae, purified as part of native SAGA (anti-FLAG M2 resin, FLAG peptide elution, GraFix)
